Measured values: patent US8741840B2, “BMP-7 for use in treating neointimal hyperplasia” (Washington University, priority 2008, dated 2014)
Several values for one entry are separate records, joined by “and”; a condition that tells them apart may be missing. Equal values may be shown once.

Key:
[1] = tested on: human vascular smooth muscle cells (hVSMC) isolated from atherosclerotic donors; test: Phosphorus stimulated matrix mineralization (matrix Ca content) in hVSMC cultures; assay type: cell-based; parameters: Matrix Ca content, Effects of 10 ng/ml BMP-7: unit not given here
Procedure: Cell Culture: Human adult aorta were obtained from seven cadaveric organ donors rejected because of atherosclerosis by Mid-America Transplant Services (St. Louis, Mo.) and enzymatically digested to obtain Human Smooth Muscle Cells (HSMC). Medial tissue was separated from the adventia and intima and digested with collagenase type I (Worthington, Lakewood, N.J.) 2 mg/ml for 1 hr, and washed with Hank's balanced salt solution (HBSS). Further digestion followed with collagenase type II 1 mg/ml (Worthington, Lakewood, N.J.) and elastase 0.25 mg/ml (Worthington, Lakewood, N.J.) for 4 hrs. Cell suspensions were washed twice with HBSS and cultured in T-75 flasks for three weeks in a 95%/5% air/CO2 humidified environment at 37° C. The growth medium used was DMEM containing […] glucose (high glucose), 10% fetal bovine serum (FBS, Atlas, Fort Collins, Colo.), 1 mM sodium pyruvate, 100 units/ml Penicillin and […] Streptomycin (Sigma, St Louis, Mo.). Cell purity was assessed by positive immunostaining for α-smooth muscle actin and calponin and for the absence of von Willebrand factor. In all experimental protocols, cells were seeded at 1×10^5 cells/well in six-well plates. Medium was changed on the first day and every third day thereafter. In all cases, cells used were between passages two and five (Table 3).
Induction of Calcification: At the time of confluence, cells were switched to mineralization medium consisting of DMEM supplemented with 1 or 2 mM Pi. For cells exposed to BMP-7 treatment, fresh mineralization medium containing either vehicle (mannitol, acetic acid, acetate) or BMP-7 in vehicle was added at 0.1, 1.0, 10, or 100 ng/ml. The medium was changed every two or three days. […] Calcium content was quantified and normalized to cellular protein as described. (Jono 2000; Moe S. M. et al., Kidney Int 67:2295-2304, 2005)^11;52
In vitro matrix mineralization. […]

[2] = tested on: LDLR−/− mice with CKD on high fat diet; test: Chemical quantitation of aortic calcium in high fat fed LDLR-/- mice with CKD (treatment study, weeks 22-28); assay type: in vivo, mouse; settings: therapy weeks 22-28 post natal; BMP-7 10 μg/kg IP weekly; CaCO3 or LaCO3 3% in diet (FIG. 1A, FIG. 2)
From the text: At 10 weeks, animals were either continued on this chow diet or initiated on a high cholesterol (0.15%) diet containing 42% calories as fat [Harlan Teklad, Madison Wis., Product No. TD88137].
Induction of CKD: A two-step procedure was utilized to create uremia as previously described. (Davies 2003; Lund, 2004)^19;21 Saphenous vein blood samples were taken 1 week following the second surgery to assess baseline post-surgical renal function. Animals were sacrificed under anesthesia 28 weeks post natal. At the time of sacrifice, blood was taken by intracardiac stab, and the heart and aorta dissected en bloc. The BMP-7 treated group received intraperitoneal injection of BMP-7 10 μg/kg dry weight once weekly in 100 μl vehicle [mannitol (5% w/v), NaAcetate buffer (20 mM, pH 4.0-4.5), sterile water].
Group 1 were LDLR−/− mice on the high fat diet sacrificed at 22 weeks. Group 2 were LDLR−/− mice with CKD fed the high fat diet and treated weekly from 22 to 28 weeks with vehicle IP. […]
Chemical Calcification Quantitation: similar to our previous experimental plans (Davies 2003; Davies 2005).^19;20 Aorta and hearts were dissected at sacrifice, and all extraneous tissue removed by blunt dissection under a dissecting microscope. […]
Mice were treated with 10 mcg/kg BMP-7 injected intraperitoneally once weekly. […] The data are expressed as group mean±SEM, n=4-7.
The data are expressed as group mean±SEM, n=4-5.

[3] = tested on: LDLR−/− mice with CKD on high fat diet; settings: LDLR-/- mice with CKD fed high fat diets; previous studies (Davies 2003; Davies 2005); cited from earlier work
[4] = Blood tests: serum biochemical parameters in the various groups of animals; assay type: in vivo, mouse
Procedure: Animals were sacrificed under anesthesia 28 weeks post natal. At the time of sacrifice, blood was taken by intracardiac stab, and the heart and aorta dissected en bloc. The BMP-7 treated group received intraperitoneal injection of BMP-7 10 μg/kg dry weight once weekly in 100 μl vehicle [mannitol (5% w/v), NaAcetate buffer (20 mM, pH 4.0-4.5), sterile water].
Animals were allocated to one of seven CKD high fat fed groups after the second surgery: Other control Groups included LDLR−/− sham operated mice on chow diet, and LDLR−/− mice with CKD on chow diet. C57B16 WT mice fed chow served as the normal benchmark source. […] Group 1 were LDLR−/− mice on the high fat diet sacrificed at 22 weeks. Group 2 were LDLR−/− mice with CKD fed the high fat diet and treated weekly from 22 to 28 weeks with vehicle IP. […] Group 3 was the first treatment group. These were LDLR−/− mice with CKD on high fat diet that received BMP-7 treatment (10 μg/kg IP weekly). Group 4 were LDLR−/− mice with CKD on high fat diet treated with sevelamer CO3 1%. Group 5 were LDLR−/− mice with CKD on high fat diet treated with sevelamer CO3 3%. […] Once the mice were randomized into groups, they were allowed to develop calcification from weeks 14 through weeks 22 post natal. Therapy was initiated at 23 weeks postnatal and continued until week 28 postnatal at which time the mice were examined.
Blood tests: Serum was analyzed on the day of blood draw for blood urea nitrogen [BUN], cholesterol, calcium and phosphate by standard laboratory methods. Before initiation of therapy, blood was obtained through saphenous vein. At the time of sacrifice, blood was obtained through intracardiac stab.

[5] = tested on: LDLR−/− high fat fed mice; test: Histology of proximal aorta (alizarin red): calcified atherosclerotic plaques; assay type: in vivo, mouse
From the text: Tissue Preparation: Resected specimens were flash frozen in liquid nitrogen, then divided as follows: the heart, ascending aorta and aortic arch were separated from the descending aorta, and bisected sagittally through the aortic outflow tract. The descending aorta was bisected coronally, approximately halfway along its length. In order to visualize calcification in the tissue sections, Slices (5 μm thick) were cut and stained with von Kossa and Trap staining.
Additional mice were enrolled to the study for qualitative analysis of aortas to quantitate the effects of the treatments, because aortas of the experimental animals were destroyed by the technique of quantifying the aortic calcium content. Vascular calcification was largely aortic atherosclerotic plaque associated (FIG. 3), and punctate calcifications in the tunica media were observed. Panel A: Large lipid laden plaque (between arrows) in proximal aorta of a sham-operated high fat fed LDLR−/− mouse. Thick arrows identify focal calcifications in the base of the plaque. Panel B: A large calcified plaque (between arrows) in the proximal aorta of a CKD high fat fed LDLR−/− mouse. Panel C: A large lipid laden plaque (between arrows) in the proximal aorta of a BMP-7 treated CKD high fat fed LDLR−/− mouse. The stain is alizarin red. Magnification is 400× in A-C.

[6] = tested on: aortas of LDLR−/− high fat fed mice; test: Aortic expression of calcification related genes by real time RT-PCR; assay type: in vivo, mouse; settings: CKD mice, BMP-7, 3% CaCO3 or 3% LaCO3 treated
Procedure: Real Time Quantitative RT-PCR: Following reverse transcription performed as above, real time was performed using the MX 4000 (Strategene, La Jolla, Calif.), SYBR Green from Sigma (St. Louis) and the PCR kit from Invitrogen. Each reaction was performed in triplicate at 95° C., 45 sec, and 60° C., 30 sec, and 60 sec at 72° C. for 40 cycles. This was followed by a melt cycle, which consisted of stepwise increase in temperature from 72° C. to 99° C. […] Ct numbers (threshold values) were set within the exponential phase of PCR and were used to calculate the expression levels of the genes of interest. GAPDH was used as an internal standard and used to normalize the values. A standard curve consisting of the cT versus log cDNA dilutions (corresponding to the log copy numbers) was generated by amplifying serial dilutions of cDNA corresponding to an […] amount of amplicon.
Expression of calcification related genes. To relate the mechanism of phosphorus action detected in vitro to this model of CKD induced vascular calcification and hyperphosphatemia in vivo, the inventors of the instant invention analyzed aortic expression of the osteoblastic lineage genes including osterix message levels by real time RT-PCR. […] Data are expressed as the mean of the transcript levels relative to GAPDH expression in each aorta±SEM, N=3. […] (Hoffman 1994;Ducy P. et al., Mol Cell Biol 15:1858-1869, 1995)^32;41

B1: BMP-7: bone morphogenetic protein-7 (osteogenic protein-1), mineralization-countering morphogen; provided by Johnson and Johnson (protein, listed as Homo sapiens)
chain: STGSKQRSQNRSKTPKNQEALRMANVAENSSSDQRQACKKHELYVSFRDLGWQDWIIAPEGYAAYYCEGECAFPLNSYMNATNHAIVQTLVHFINPETVPKPCCAPTQLNAISVLYFDDSSNVILKKYRNMVVRACGCH
**Q.** For B1, which “mineralization of the ECM” value ([1]; BMP-7 0.1, 1 and 10 ng/ml, 14 or 21 days in high phosphorus media (FIG. 4)) is on record?
**A.** decreased mineralization of the ECM

**Q.** And the “Matrix Ca content, Effects of 10 ng/ml BMP-7” value ([1]; hVSMC from atherosclerotic aortas, one donor (donors 1-7, passage 2-3), 10 ng/ml BMP-7 in high phosphorus (2 mM PO4) media)?
**A.** 18 and 17.9 and 25.8 and 19.8 and 22.1 and 20.3 and 20.6

**Q.** And the “aortic calcium (vascular calcification) versus the 22 week start point” value [2]?
**A.** significant reduction of aortic calcification compared to the 22 week start point

**Q.** And the “development of aortic calcification (prevention studies)” value [3]?
**A.** prevented the development of aortic calcification

**Q.** And the “serum phosphorus / hyperphosphatemia” value ([4]; CKD high fat fed LDLR-/- mice, treated weeks 22-28 (FIG. 1B, Table 5))?
**A.** reduced to normal levels

**Q.** And the Phosphorus ([4]; serum, LDLR-/-, fat diet, CKD, 28 weeks post natal, BMP-7 10 μg/kg IP weekly or binder 3% in diet)?
**A.** 6.325 ± .471 mg/dL

**Q.** What about the “size of the atherosclerotic lesions” value ([5]; proximal aorta (FIG. 3)) of the same molecule?
**A.** did not decrease the size of the atherosclerotic lesions

**Q.** What about the “plaque associated calcium deposition” value ([5]; proximal aorta, alizarin red stain (FIG. 3)) of the same molecule?
**A.** diminished plaque associated calcium deposition

**Q.** And the “CBFA1 expression in aorta” value ([6]; relative to GAPDH (FIG. 9B))?
**A.** inhibited

**Q.** And the “Osterix expression in aorta” value ([6]; relative to GAPDH (FIG. 9C))?
**A.** inhibited

**Q.** And the “Osteocalcin expression in aorta” value ([6]; relative to GAPDH (FIG. 9D))?
**A.** inhibited
